In PMC11093223, “Cargo selective vesicle tethering: The structural basis for binding of specific cargo proteins by the Golgi tether component TBC1D23” (Science Advances, 2024):

What was measured:
Settings in all cases: both partners purified
[1] = molecular target: T1, Mouse TBC1D23 (559-684), C-terminal domain (mouse, UniProt Q8K0F1 559-684); assay: ITC; peptide (0.8 to 5 mM) titrated into 100 uM TBC1D23 C-terminal domain, 20 injections of 2.4 ul; 20°C; 100 mM NaCl, 100 mM tris pH 7.4, 1 mM TCEP; mean of three runs
T1 construct: TBC1D23, mouse, UniProt Q8K0F1 (684 residues), C-terminal domain, residues 559-684; also called TBC1D23 C-terminal domain; TBC1D23 full length C-terminal domain; source: E. coli BL21 plyS, purified (glutathione-Sepharose, thrombin cleavage, Superdex 200 gel filtration)
T1 sequence (Q8K0F1 559-684): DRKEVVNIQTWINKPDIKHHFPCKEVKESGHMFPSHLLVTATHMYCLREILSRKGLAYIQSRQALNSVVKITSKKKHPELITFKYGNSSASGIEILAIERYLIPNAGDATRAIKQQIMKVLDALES

[2] = molecular target: T2, TBC1D23 C-terminal domain I675W (mouse, UniProt Q8K0F1 559-677, I675W); assay: ITC; peptide (0.8 to 5 mM) titrated into 100 μM TBC1D23 C-terminal domain, 20°C, 100 mM NaCl, 100 mM tris pH 7.4, 1 mM TCEP, Nano ITC
T2 construct: TBC1D23, mouse, UniProt Q8K0F1, C-terminal domain (limits as m7, in data S3); source: E. coli BL21 plyS, purified (glutathione-Sepharose, GST cleaved with thrombin, Superdex 200)
T2 sequence (Q8K0F1 559-677 I675W): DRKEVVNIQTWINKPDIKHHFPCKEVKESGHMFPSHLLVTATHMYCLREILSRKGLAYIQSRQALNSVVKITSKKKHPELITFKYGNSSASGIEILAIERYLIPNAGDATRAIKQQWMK

[3] = molecular target: T3, TBC1D23 C-terminal domain (mouse, UniProt Q8K0F1 559-684); assay: as above
T3 construct: TBC1D23, mouse, UniProt Q8K0F1, C-terminal domain ending with VLDALES at residue 684; used for ITC and for the 3.3 Å crystals; also called the C-terminal domain; TBC1D23 full-length C-terminal domain; source: E. coli BL21 plyS, purified (glutathione-Sepharose, GST cleaved with thrombin, Superdex 200)
T3 sequence (Q8K0F1 559-684): as the sequence (Q8K0F1 559-684) above

[4] = molecular target: T4, TBC1D23 C-terminal domain K672A (mouse, UniProt Q8K0F1 559-677, K672A); assay: as above
T4 construct: TBC1D23, mouse, UniProt Q8K0F1, C-terminal domain (limits as m7, in data S3); source: E. coli BL21 plyS, purified (glutathione-Sepharose, GST cleaved with thrombin, Superdex 200)
T4 sequence (Q8K0F1 559-677 K672A): as the sequence (Q8K0F1 559-677 I675W) above, with K114A, W117I counted along it

| Binder | Kd [1] [µM] | Kd [3] [µM] | other results |
| --- | --- | --- | --- |
| DDNTAYHRGFTED (syntaxin-16, human, residues 209-221 with L213A) [syntaxin-16 peptide L213A] | > 200 | – | – |
| DDNTLWHRGFTED (syntaxin-16, human, residues 209-221 with Y214W) | 5.6 | – | – |
| DDNTLFHRGFTED (syntaxin-16, human, residues 209-221 with Y214F) | 15.5 | – | – |
| DDNTFYHRGFTED (syntaxin-16, human, residues 209-221 with L213F) [syntaxin-16 peptide L213F] | 150 | – | – |
| DDNTLYHRGFTED (peptide, UniProt O14662 209-221, looked up, syntaxin-16, human, residues 209 to 221, beginning 209DDNTLY (T212, L213, Y214, R216); also called syntaxin-16 peptide; wild type; source: peptide) [syntaxin-16 (209–221) peptide] | – | ~1.4 | Kd [2]: > 300 µM; stoichiometry N [3]: 1; Kd [4]: ~30 µM |

The next lines start with results.

| Kd [1] [µM] | Kd [3] [µM] | Binder | other results |
| --- | --- | --- | --- |
| 30.1 | – | DDNSLYHRGFTED (syntaxin-16, human, residues 209-221 with T212S) | – |
| – | ~30 | DDNSLYHRGFTED (peptide, UniProt O14662 209-221, looked up, syntaxin-16, human, peptide 209 to 221 as m28; source: peptide) | – |
| – | ~7 | DDNTLWHRGFTED (peptide, UniProt O14662 209-221, looked up, syntaxin-16, human, peptide 209 to 221 as m28; source: peptide) | – |
| – | ~15 | DDNTLFHRGFTED (peptide, UniProt O14662 209-221, looked up, syntaxin-16, human, peptide 209 to 221 as m28; source: peptide) | – |
